Test results published in PMC12199305 (2025).

Columns and labels:
MEF2A [1] = biological target: T1, MEF2A (human, UniProt Q02078 1-507); experiment: SPR
MEF2A [2] = biological target: T1, MEF2A; experiment: SPR; remark: listed apart in the source

T1 sequence (Q02078 whole entry): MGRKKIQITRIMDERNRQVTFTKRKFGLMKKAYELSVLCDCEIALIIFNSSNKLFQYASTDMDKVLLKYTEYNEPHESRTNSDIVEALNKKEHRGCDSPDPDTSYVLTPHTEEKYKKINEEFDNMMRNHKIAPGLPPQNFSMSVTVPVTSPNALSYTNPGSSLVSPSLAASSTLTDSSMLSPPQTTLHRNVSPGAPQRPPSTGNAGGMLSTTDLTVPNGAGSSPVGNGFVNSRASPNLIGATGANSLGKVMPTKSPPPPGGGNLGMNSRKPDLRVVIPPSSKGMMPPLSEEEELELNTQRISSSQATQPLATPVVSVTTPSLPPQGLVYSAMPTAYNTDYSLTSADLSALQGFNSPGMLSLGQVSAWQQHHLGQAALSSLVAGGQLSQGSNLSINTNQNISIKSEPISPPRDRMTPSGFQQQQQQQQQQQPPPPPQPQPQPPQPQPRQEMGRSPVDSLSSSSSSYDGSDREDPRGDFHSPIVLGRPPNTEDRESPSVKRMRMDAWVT

| koff (MEF2A [1]) [s⁻¹] | Kd (MEF2A [2]) [nM] | Binder |
| --- | --- | --- |
| 0.00082 | 3.5 | HDAC7 (enzyme) MDLRVGQRPPVEPPPEPTLLALQRPQRLHHHLFLAGLQQQRSVEPMRLSMDTPMPELQVGPQEQELRQLLHKDKSKRSAVASSVVKQKLAEVILKKQQAALERTVHPNSPGIPYRTLEPLETEGATRSMLSSFLPPVPSLPSDPPEHFPLRKTVSEPNLKLRYKPKKSLERRKNPLLRKESAPPSLRRRPAETLGDSSPSSSSTPASGCSSPNDSEHGPNPILGSEALLGQRLRLQETSVAPFALPTVSLLPAITLGLPAPARADSDRRTHPTLGPRGPILGSPHTPLFLPHGLEPEAGGTLPSRLQPILLLDPSGSHAPLLTVPGLGPLPFHFAQSLMTTERLSGSGLHWPLSRTRSEPLPPSATAPPPPGPMQPRLEQLKTHVQVIKRSAKPSEKPRLRQIPSAEDLETDGGGPGQVVDDGLEHRELGHGQPEARGPAPLQQHPQVLLWEQQRLAGRLPRGSTGDTVLLPLAQGGHRPLSRAQSSPAAPASLSAPEPASQARVLSSSETPARTLPFTTGLIYDSVMLKHQCSCGDNSRHPEHAGRIQSIWSRLQERGLRSQCECLRGRKASLEELQSVHSERHVLLYGTNPLSRLKLDNGKLAGLLAQRMFVMLPCGGVGVDTDTIWNELHSSNAARWAAGSVTDLAFKVASRELKNGFAVVRPPGHHADHSTAMGFCFFNSVAIACRQLQQQSKASKILIVDWDVHHGNGTQQTFYQDPSVLYISLHRHDDGNFFPGSGAVDEVGAGSGEGFNVNVAWAGGLDPPMGDPEYLAAFRIVVMPIAREFSPDLVLVSAGFDAAEGHPAPLGGYHVSAKCFGYMTQQLMNLAGGAVVLALEGGHDLTAICDASEACVAALLGNRVDPLSEEGWKQKPNLNAIRSLEAVIRVHSKYWGCMQRLASCPDSWVPRVPGADKEEVEAVTALASLSVGILAEDRPSEQLVEEEEPMNL |
| 0.0082 | 19.1 | HDAC9 (enzyme) MHSMISSVDVKSEVPVGLEPISPLDLRTDLRMMMPVVDPVVREKQLQQELLLIQQQQQIQKQLLIAEFQKQHENLTRQHQAQLQEHIKELLAIKQQQELLEKEQKLEQQRQEQEVERHRREQQLPPLRGKDRGRERAVASTEVKQKLQEFLLSKSATKDTPTNGKNHSVSRHPKLWYTAAHHTSLDQSSPPLSGTSPSYKYTLPGAQDAKDDFPLRKTASEPNLKVRSRLKQKVAERRSSPLLRRKDGNVVTSFKKRMFEVTESSVSSSSPGSGPSSPNNGPTGSVTENETSVLPPTPHAEQMVSQQRILIHEDSMNLLSLYTSPSLPNITLGLPAVPSQLNASNSLKEKQKCETQTLRQGVPLPGQYGGSIPASSSHPHVTLEGKPPNSSHQALLQHLLLKEQMRQQKLLVAGGVPLHPQSPLATKERISPGIRGTHKLPRHRPLNRTQSAPLPQSTLAQLVIQQQHQQFLEKQKQYQQQIHMNKLLSKSIEQLKQPGSHLEEAEEELQGDQAMQEDRAPSSGNSTRSDSSACVDDTLGQVGAVKVKEEPVDSDEDAQIQEMESGEQAAFMQQPFLEPTHTRALSVRQAPLAAVGMDGLEKHRLVSRTHSSPAASVLPHPAMDRPLQPGSATGIAYDPLMLKHQCVCGNSTTHPEHAGRIQSIWSRLQETGLLNKCERIQGRKASLEEIQLVHSEHHSLLYGTNPLDGQKLDPRILLGDDSQKFFSSLPCGGLGVDSDTIWNELHSSGAARMAVGCVIELASKVASGELKNGFAVVRPPGHHAEESTAMGFCFFNSVAITAKYLRDQLNISKILIVDLDVHHGNGTQQAFYADPSILYISLHRYDEGNFFPGSGAPNEVGTGLGEGYNINIAWTGGLDPPMGDVEYLEAFRTIVKPVAKEFDPDMVLVSAGFDALEGHTPPLGGYKVTAKCFGHLTKQLMTLADGRVVLALEGGHDLTAICDASEACVNALLGNELEPLAEDILHQSPNMNAVISLQKIIEIQSMSLKFS |
| 0.0025 | 5 | HDAC4 (enzyme) MSSQSHPDGLSGRDQPVELLNPARVNHMPSTVDVATALPLQVAPSAVPMDLRLDHQFSLPVAEPALREQQLQQELLALKQKQQIQRQILIAEFQRQHEQLSRQHEAQLHEHIKQQQEMLAMKHQQELLEHQRKLERHRQEQELEKQHREQKLQQLKNKEKGKESAVASTEVKMKLQEFVLNKKKALAHRNLNHCISSDPRYWYGKTQHSSLDQSSPPQSGVSTSYNHPVLGMYDAKDDFPLRKTASEPNLKLRSRLKQKVAERRSSPLLRRKDGPVVTALKKRPLDVTDSACSSAPGSGPSSPNNSSGSVSAENGIAPAVPSIPAETSLAHRLVAREGSAAPLPLYTSPSLPNITLGLPATGPSAGTAGQQDAERLTLPALQQRLSLFPGTHLTPYLSTSPLERDGGAAHSPLLQHMVLLEQPPAQAPLVTGLGALPLHAQSLVGADRVSPSIHKLRQHRPLGRTQSAPLPQNAQALQHLVIQQQHQQFLEKHKQQFQQQQLQMNKIIPKPSEPARQPESHPEETEEELREHQALLDEPYLDRLPGQKEAHAQAGVQVKQEPIESDEEEAEPPREVEPGQRQPSEQELLFRQQALLLEQQRIHQLRNYQASMEAAGIPVSFGGHRPLSRAQSSPASATFPVSVQEPPTKPRFTTGLVYDTLMLKHQCTCGSSSSHPEHAGRIQSIWSRLQETGLRGKCECIRGRKATLEELQTVHSEAHTLLYGTNPLNRQKLDSKKLLGSLASVFVRLPCGGVGVDSDTIWNEVHSAGAARLAVGCVVELVFKVATGELKNGFAVVRPPGHHAEESTPMGFCYFNSVAVAAKLLQQRLSVSKILIVDWDVHHGNGTQQAFYSDPSVLYMSLHRYDDGNFFPGSGAPDEVGTGPGVGFNVNMAFTGGLDPPMGDAEYLAAFRTVVMPIASEFAPDVVLVSSGFDAVEGHPTPLGGYNLSARCFGYLTKQLMGLAGGRIVLALEGGHDLTAICDASEACVSALLGNELDPLPEKVLQQRPNANAVRSMEKVMEIHSKYWRCLQRTTSTAGRSLIEAQTCENEEAETVTAMASLSVGVKPAEKRPDEEPMEEEPPL |
